Data reported in article PMC11109316, “In vivo neutralization of coral snake venoms with an oligoclonal nanobody mixture in a murine challenge model” (Nature Communications, 2024).

B1: TPL0629_01_G06 (VHH)
VHH: QVQLQESGGGLVQAGGSLRLSCAASGRAFSSYTMGWFRQAPGDMRELVAQITSSGSSTYHIDSVEGRFAISRDNAKNTVYLQMNSLQPEDAAIYYCAGGLNAYQYWGQGTQVTVSS
notes: also called anti-αNTx VHH
B2: TPL0629_01_A07 (VHH)
VHH: QVQLQESGGGLVQAGGSLRLSCTASEGTVSYSTVGWFRQAPGGGRDLVAQSGSSDEDTHVAGSVKGRFTISRDNTNNTVYLQMSSLKPEDSAVYYCAAAPGDQYKYWGQGTQVTVSS
notes: also called anti-αNTx VHH
B3: TPL0629_01_D11 (VHH)
VHH: QVQLQESGGGLVQAGGSLRLSCAGSGDALGSYTMGWFRQAPGGGRDLVAQISVDGSSTYHLDSVRGRFTASRDNAKNTVYLEMNSLNSEDTAVYYCAAAPLLRGNYDYWGQGTQVTVSS
notes: also called anti-αNTx VHH; monovalent VHH

Each binder was assayed against T1, α-cobratoxin (Naja kaouthia, UniProt P01391) (assay: DELFIA (dose-response, capture format)). Details: both partners purified.
T1 construct: also called long chain αNTx from Naja kaouthia; source: bought: Latoxan
B1: no binding (tested: 1 µM). B2: no binding (tested: 1 µM). B3: no binding (tested: 1 µM).
